In the DeepSol protein solubility set:

Experiment: soluble on expression in E. coli; label from the status in PepcDB or PDB records

Sequence | soluble on expression in E. coli
PHSMEPQVTLNVTFKNEIQSFLVSDPENTTWADIEAMVKVSFDLNTIQIKYLDEENEEVSINSQGEYEEALKMAVKQGNQLQMQVHEGHHVVDEAPPPVVGAKRLAARAGKKPLAHYSSLVRVLGSDMKTPEDPAVQSFPLVPCDTDQPQDKPPDWFTSYLETFREQVVNETVEKLEQKLHEKLVLQNPSLGSCPSEVSMPTSEETLFLPENQFSWHIACNNCQRRIVGVRYQCSLCPSYNICEDCEAGPYGHDTNHVLLKLRRPVVGSSEPFCHSKYSTPRLPAALEQVRLQKQVDKNFLKAEKQRLRAEKKQRKAEVKELKKQLKLHRKIHLWNSIHGLQSPKSPLGRPESLLQSNTLMLPLQPCTSVMPMLSAAFVDENLPDGTHLQPGTKFIKHWRMKNTGNVKWSADTKLKFMWGNLTLASTEKKDVLVPCLKAGHVGVVSVEFIAPALEGTYTSHWRLSHKGQQFGPRVWCSIIVDPFPSEESPDNIEKGMISSSKTDDLTCQQEETFLLAKEERQLGEVTEQTEGTAACIPQKAKNVASERELYIPSVDLLTAQDLLSFELLDINIVQELERVPHNTPVDVTPCMSPLPHDSPLIEKPGLGQIEEENEGAGFKALPDSMVSVKRKAENIASVEEAEEDLSGTQFVCETVIRSLTLDAAPDHNPPCRQKSLQMTFALPEGPLGNEKEEIIHIAEEEAVMEEEEDEEDEEEEDELKDEVQSQSSASSEDYIIILPECFDTSRPLGDSMYSSALSQPGLERGAEGKPGVEAGQEPAEAGERLPGGENQPQEHSISDILTTSQTLETVPLIPEVVELPPSLPRSSPCVHHHGSPGVDLPVTIPEVSSVPDQIRGEPRGSSGLVNSRQKSYDHSRHHHGSSIAGGLVKGALSVAASAYKALFAGPPVTAQPIISEDQTAALMAHLFEMGFCDRQLNLRLLKKHNYNILQVVTELLQLNNNDWYSQRY | soluble
MGAFDRVKAQVASDSKWTSAPYKGFVAGSPSNTYIDIVSTAFEDATNTMNFARHSKYDEMYSPYLGSFRERHNYTSIAPSLCINKTNRAIEYDLAPHKAYNPRQSEWLLEKDKKYRVRGARNLIYTKSASDISLPPLTRRTFTVPTDTLRHQNQFLYWNGRALGLDYVAPFLRREDYSRHEDRRYQRIYWSPHFIDLLPSCRHSAHLMLSAY | not soluble
MNPNFLDFEQPIADLQAKIEELRLVGNDNSLNIGDEISRLQDKSKTLTESIFGNLTSWQIARMARHPRRPYTLDYIENIFTEFDELHGDRHFSDDAAIVGGIARLDNQPVMIIGHQKGREVREKVRRNFGMPRPEGYRKACRLMEMAERFKMPILTFIDTPGAYPGIDAEERNQSEAIAWNLRVMARLKTPIIATVIGEGGSGGALAIGVCDQLNMLQYSTYAVISPEGCASILWKTAEKAPDAAEAMGITADRLKGLGIVDKVIAEPLGGAHRDPVAAAALIREELSSQLAMLKAFDNDALLARRYDRLMSYGL | not soluble
MYTIAALYHFTRFADPADLKPALLDLCLAQGVKGTLLLAKEGINGTIAGPRAGIDAVLAHIRALPGCSDLEWKEATSDHPPFGKMKVRLKQEIVTMGQPDVDPRARVGHYVEPEDWNDLIRSDDVVLIDTRNDYEVAIGTFEGAIDPMTESFRDFPAWWEANKERFHNKRVAMFCTGGIRCEKSTNYLLGQGVEDVYHLKGGILRYLEEVPAENSTWQGECFVFDNRVSVGHGLVEGPHELCHGCRRPILPEDRNRPEYEHGVSCHLCIDETSEADKMRFRERQKQIALARARGEDHLATHLEHHHHHH | soluble
MGSDKIHHHHHHGDWLNLNPSTSVTTPQAIRTLEEAQIALNGIYRIAASHSYYGDNYLYYADCRGEDVQARVSKGAGKRVSPYYEFNVTADDALNITRVWNQPYSVIHQANSLLERIESGAVVTDDAVALNCIKAEALALRGLALFDLTRLFAMPYTLNNGTSLGVPIEIKTTLPTHQPARNTVAECYQQVIDDMTGALKLSALSADKKNGYLNVWSVKALLSRVYLYMNDNEKALALAKEVMNNGGLYQLFTHDEYPTVWGKDFSSESLFEFYYTLSEPDGGTGGEGAPMVYADNVKDWNNLVLTKAFLDLLGEDPDDVRHSLNRLPEKPEEDILPEGSKGYPKYLNKYPGKTGDNPQDNDICIIRLSEVYLNAAEAAFKLGGAENLKFSLDCLNAIVSRANPVKSVKETELSLERILKERRKELVGEGHAFFDAMRNGLSVSRTGGWHLPSVAAAAVISPSDPRVALPIPQAEIDANPNMVQNPH | not soluble
MQLNKVLKGLMLALPVLAVAACSSNKSANNDQSGMGAGTGTENGSNLSSEEQARLQMQELQKNNIVYFGFDKYDIGSDFAQMLDAHAAFLRSNPSDKVVVEGHADERGTPEYNIALGERRASAVKMYLQGKGVSADQISIVSYGKEKPAVLGHDEAAFAKNRRAVLVY | not soluble
MEVYSKLRAPPSSRMILRLDGRGFHRLTESLDFDRPYDEAFRDLMIRTCLDLMEEFSPSLIYTFSDEINVLLDSVPFAGRVEKLDSVFSGFASSSFTRGALEAGFSPVKPVSFDCRVIPISSDIVPEYFRSRQDESWRNCLNSYAYWTLRREVGARRAAERLRGLKSDSLHDLLFERGVNISRVPAWQRRGVGVYRVPHRVRGYNPIRDEEVSAVRMRVKVDLELPLFTDEFFEGLMRLEHHHHHH | soluble
MRMMEAEIKDQRNNLQALKNSQRLSVRGSIQSNMSSRTDGILQRRLDETERKLAKTSAELKAKDEKLKKETASLEASREAHRLLQEESNKSKVSVMRLTFKLNRITHESVKEQAVLKKKLLDCETRLATYSECLVCYQKFDENTRIPRVMDCGHTLCDFCINQIVKMAGCYSATCPFDRVRIFGFGKSRRLEDRPCNRFIMK | not soluble
MIGLITTLYFVAKTAFIKLKVAVYKDKAKGSGNKNTIVIYSEGKRYWNVFLPICNEFEEHQKELVFYTSSEDDPVFEQHYTYVKPEYIGKGNKAFARLNMLEADICLMTTPGLDVYQLKRSKHVRHYSHILHALDDATSYRLFGLDYFDSVLLSGEYQVKGIRELESLRNLPPKNLRVVGCPYLDVLSEKIKNLPEKSSDFTVLIAPSWGASGILSKYGEQLITPLVETGWNIIIRPHPQSKTSEPDMLKRLEGKYKDVANFVWDYNSENIDSLSKADIMISDFSSVIFDYCFLFDKPFLYCNNEFDHRPYDSGDLKETPWKFSVLKEIGVELNSNSFDHIKEIISEACKSETLKENRLKAKDTAWQNRGCAGKAVYDFLTEIKTI | not soluble
MEVSSVFIFPPKPKDVLTITLTPKVTCVVVDISKDDPEVQFSWFVDDVEVHTAQTQPREEQFNSTFRSVSELPIMHQDWLNGKEFKCRVNSAAFPAPIEKTISKTKGRPKAPQVYTIPPPKEQMAKDKVSLTCMITDFFPEDITVEWQWNGQPAENYKNTQPIMDTDGSYFVYSKLNVQKSNWEAGNTFTCSVLHEGLHNHHTEKSLSHSPGKE | soluble
MSGGIDSTATCLMLQEQGYEIVGVTMRVWGDEPQDARELAARMGIEHYVADERIPFKETIVKNFIDEYKQGRTPNPCVMCNPLFKFRVLAEWADKLDCAYIATGHYSRLEERSGHIYIVAGDDDKKDQSYFLWRLGQDILKRCIFPLGDYTKIKVREYLAEKGYEAKSKEGESMEVCFIQGDYRDFLREQCPELDTEIGPGWFVNSEGVKLGQHKGAPYYTIGQRKGLEIALGKPAYVLKINPQKNTVMLGDAEQLQTEYMLAEQDRIVDEQELFSCENLAVRIRYRSRPIPCRVKRLEDGRLLVRFRETASAVAPGQSAVFYDGRRVLGGAFIASQRGIGLVIIENKDKL | not soluble
MGSDKIHHHHHHMRILFYCDTVFSFGGVQRVLAEIAKALSGKHEVTILTTDTCTDLSMYGYAESTVRFDSFSYSASSFIERLLCKGYSFLYKHGLPHTRLTSEWYAASFFPSSYKRTLARKINARQCDVVIGVHAFMALHLSAVKSRIRTKTVGWLHNSYEAFFEKETPYLPGLDCFFQVQMGKLDERVVLSHADAGCFFRKMNLCCEVIYNPLTVLPKGRGKKEYRRILAVGRFSFGHKGFDILIKAFSVFVKTHPDWTLEIVGEGPEEALYRSLINEYELEKSIALHPFTKEVQEYYAHSSMYVLSSRWEGFGLVMIEAMAHGLPVIASDLPITRELLKDKDMAVLFETGNIAQLAGCMSYMADRTDWEWMGNKAVEYADTFHIEKVCDSWNNLLKKVVYGTR | not soluble
MRILSLILWIAAIVLPVHSASAAPVKMTIVLERQYLDGEMSEEKVTETVDSMTEIWKKYRGWQLVTLDDQTIVFRKTINDISPLLKTNGYFGITDDGTLSIFNGKPDRSSEIIQSFFQIDVQKLESRQQEKLKKGIRVLSKERYEQVIEMYRHFAVVQ | not soluble
